Laboratory results taken from patent US20150045540A1 (published 2015).

T1: Placenta Growth Factor (PlGF), human (human, UniProt P49763 21-149)
T1 chain: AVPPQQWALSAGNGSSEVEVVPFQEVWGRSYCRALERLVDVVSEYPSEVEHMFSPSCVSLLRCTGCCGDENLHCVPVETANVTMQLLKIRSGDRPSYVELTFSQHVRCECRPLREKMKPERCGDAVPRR

B1: HC 3/SLC 6 (antibody)
chain 1: GQGTLVTVSSASTQPVLHQPPAMSSALGTTIRLTCTLRNDHDIGVYSVYWYQQRPGHPPRFLLRYFSQSDKSQGPQVPPRFSGSKDVARNRGYLSISELQPEDEAMYYCAMGARSRCWPRGFQSKHNSVTHVFGSGTQLTVLSQPKATPSVTLFPPSSEELQANKATLVCLMNDFYPGILTVTWKADGTPITQGVEMTTPSKQSNNKYAASSYLSLTPEQWRSRRSYSCQVMHEGSTVEKTVAPAECS
chain 2: MSWAPVLLMLFVYCTGCGPQPVLHQPPAMSSALGTTIRLTCTLRNDHDIGVYSVYWYQQRPGHPPRFLLRYFSQSDKSQGPQVPPRFSGSKDVARNRGYLSISVTHVFGSGTQLTVLSQPKATQVQLVQ
B2: HC 4/SLC 6 (antibody)
chain 1: GQGTLVTVSSASTKQPVLHQPPAMSSALGTTIRLTCTLRNDHDIGVYSVYWYQQRPGHPPRFLLRYFSQSDKSQGPQVPPRFSGSKDVARNRGYLSISELQPEDEAMYYCAMGARSRCWPRGFQSKHNSVTHVFGSGTQLTVLSQPKATPSVTLFPPSSEELQANKATLVCLMNDFYPGILTVTWKADGTPITQGVEMTTPSKQSNNKYAASSYLSLTPEQWRSRRSYSCQVMHEGSTVEKTVAPAECS
chain 2: B1 chain 2
B3: HC 8/SLC 8 (antibody)
chain 1: GQGTLVTVSSASTKGPSVQPVLHQPPAMSSALGTTIRLTCTLRNDHDIGVYSVYWYQQRPGHPPRFLLRYFSQSDKSQGPQVPPRFSGSKDVARNRGYLSISELQPEDEAMYYCAMGARSRCWPRGFQSKHNSVTHVFGSGTQLTVLSQPKATPSVTLFPPSSEELQANKATLVCLMNDFYPGILTVTWKADGTPITQGVEMTTPSKQSNNKYAASSYLSLTPEQWRSRRSYSCQVMHEGSTVEKTVAPAECS
chain 2: MSWAPVLLMLFVYCTGCGPQPVLHQPPAMSSALGTTIRLTCTLRNDHDIGVYSVYWYQQRPGHPPRFLLRYFSQSDKSQGPQVPPRFSGSKDVARNRGYLSISVTHVFGSGTQLTVLSQPKATPSQVQLVQ
B4: HC 6/SLC 5 (antibody)
chain 1: GQGTLVTVSSASTKGPQPVLHQPPAMSSALGTTIRLTCTLRNDHDIGVYSVYWYQQRPGHPPRFLLRYFSQSDKSQGPQVPPRFSGSKDVARNRGYLSISELQPEDEAMYYCAMGARSRCWPRGFQSKHNSVTHVFGSGTQLTVLSQPKATPSVTLFPPSSEELQANKATLVCLMNDFYPGILTVTWKADGTPITQGVEMTTPSKQSNNKYAASSYLSLTPEQWRSRRSYSCQVMHEGSTVEKTVAPAECS
chain 2: MSWAPVLLMLFVYCTGCGPQPVLHQPPAMSSALGTTIRLTCTLRNDHDIGVYSVYWYQQRPGHPPRFLLRYFSQSDKSQGPQVPPRFSGSKDVARNRGYLSISVTHVFGSGTQLTVLSQPKAQVQLVQ
B5: HC 8/SLC 9 (antibody)
chain 1: B3 chain 1
chain 2: MSWAPVLLMLFVYCTGCGPQPVLHQPPAMSSALGTTIRLTCTLRNDHDIGVYSVYWYQQRPGHPPRFLLRYFSQSDKSQGPQVPPRFSGSKDVARNRGYLSISVTHVFGSGTQLTVLSQPKATPSVQVQLVQ
B6: HC 9/SLC 8 (antibody)
chain 1: GQGTLVTVSSASTKGPSVFQPVLHQPPAMSSALGTTIRLTCTLRNDHDIGVYSVYWYQQRPGHPPRFLLRYFSQSDKSQGPQVPPRFSGSKDVARNRGYLSISELQPEDEAMYYCAMGARSRCWPRGFQSKHNSVTHVFGSGTQLTVLSQPKATPSVTLFPPSSEELQANKATLVCLMNDFYPGILTVTWKADGTPITQGVEMTTPSKQSNNKYAASSYLSLTPEQWRSRRSYSCQVMHEGSTVEKTVAPAECS
chain 2: B3 chain 2
B7: HC 3/SLC 9 (antibody)
chain 1: B1 chain 1
chain 2: B5 chain 2
B8: HC 7/SLC 6 (antibody)
chain 1: GQGTLVTVSSASTKGPSQPVLHQPPAMSSALGTTIRLTCTLRNDHDIGVYSVYWYQQRPGHPPRFLLRYFSQSDKSQGPQVPPRFSGSKDVARNRGYLSISELQPEDEAMYYCAMGARSRCWPRGFQSKHNSVTHVFGSGTQLTVLSQPKATPSVTLFPPSSEELQANKATLVCLMNDFYPGILTVTWKADGTPITQGVEMTTPSKQSNNKYAASSYLSLTPEQWRSRRSYSCQVMHEGSTVEKTVAPAECS
chain 2: B1 chain 2
B9: HC 3/SLC 15 (antibody)
chain 1: B1 chain 1
chain 2: MSWAPVLLMLFVYCTGCGPQPVLHQPPAMSSALGTTIRLTCTLRNDHDIGVYSVYWYQQRPGHPPRFLLRYFSQSDKSQGPQVPPRFSGSKDVARNRGYLSISVTHVFGSGTQLTVLSQPKATPSVTGGGGSQVQLVQ
B10: HC 8/SLC 4 (antibody)
chain 1: B3 chain 1
chain 2: MSWAPVLLMLFVYCTGCGPQPVLHQPPAMSSALGTTIRLTCTLRNDHDIGVYSVYWYQQRPGHPPRFLLRYFSQSDKSQGPQVPPRFSGSKDVARNRGYLSISVTHVFGSGTQLTVLSQPKQVQLVQ
B11: HC 2/SLC 7 (antibody)
chain 1: GQGTLVTVSSASQPVLHQPPAMSSALGTTIRLTCTLRNDHDIGVYSVYWYQQRPGHPPRFLLRYFSQSDKSQGPQVPPRFSGSKDVARNRGYLSISELQPEDEAMYYCAMGARSRCWPRGFQSKHNSVTHVFGSGTQLTVLSQPKATPSVTLFPPSSEELQANKATLVCLMNDFYPGILTVTWKADGTPITQGVEMTTPSKQSNNKYAASSYLSLTPEQWRSRRSYSCQVMHEGSTVEKTVAPAECS
chain 2: MSWAPVLLMLFVYCTGCGPQPVLHQPPAMSSALGTTIRLTCTLRNDHDIGVYSVYWYQQRPGHPPRFLLRYFSQSDKSQGPQVPPRFSGSKDVARNRGYLSISVTHVFGSGTQLTVLSQPKATPQVQLVQ
B12: HC 10/SLC 7 (antibody)
chain 1: GQGTLVTVSSASTKGPSVFPQPVLHQPPAMSSALGTTIRLTCTLRNDHDIGVYSVYWYQQRPGHPPRFLLRYFSQSDKSQGPQVPPRFSGSKDVARNRGYLSISELQPEDEAMYYCAMGARSRCWPRGFQSKHNSVTHVFGSGTQLTVLSQPKATPSVTLFPPSSEELQANKATLVCLMNDFYPGILTVTWKADGTPITQGVEMTTPSKQSNNKYAASSYLSLTPEQWRSRRSYSCQVMHEGSTVEKTVAPAECS
chain 2: B11 chain 2
B13: HC 4/SLC 4 (antibody)
chain 1: B2 chain 1
chain 2: B10 chain 2
B14: HC 2/SLC 5 (antibody)
chain 1: B11 chain 1
chain 2: B4 chain 2

Experiments:
[1] = biological target: T1, Placenta Growth Factor (PlGF), human; experiment: ELISA
[2] = biological target: Hepatocyte Growth Factor (HGF), human (human, UniProt P14210 32-728); experiment: ELISA
Chain of Hepatocyte Growth Factor (HGF), human (P14210 32-728): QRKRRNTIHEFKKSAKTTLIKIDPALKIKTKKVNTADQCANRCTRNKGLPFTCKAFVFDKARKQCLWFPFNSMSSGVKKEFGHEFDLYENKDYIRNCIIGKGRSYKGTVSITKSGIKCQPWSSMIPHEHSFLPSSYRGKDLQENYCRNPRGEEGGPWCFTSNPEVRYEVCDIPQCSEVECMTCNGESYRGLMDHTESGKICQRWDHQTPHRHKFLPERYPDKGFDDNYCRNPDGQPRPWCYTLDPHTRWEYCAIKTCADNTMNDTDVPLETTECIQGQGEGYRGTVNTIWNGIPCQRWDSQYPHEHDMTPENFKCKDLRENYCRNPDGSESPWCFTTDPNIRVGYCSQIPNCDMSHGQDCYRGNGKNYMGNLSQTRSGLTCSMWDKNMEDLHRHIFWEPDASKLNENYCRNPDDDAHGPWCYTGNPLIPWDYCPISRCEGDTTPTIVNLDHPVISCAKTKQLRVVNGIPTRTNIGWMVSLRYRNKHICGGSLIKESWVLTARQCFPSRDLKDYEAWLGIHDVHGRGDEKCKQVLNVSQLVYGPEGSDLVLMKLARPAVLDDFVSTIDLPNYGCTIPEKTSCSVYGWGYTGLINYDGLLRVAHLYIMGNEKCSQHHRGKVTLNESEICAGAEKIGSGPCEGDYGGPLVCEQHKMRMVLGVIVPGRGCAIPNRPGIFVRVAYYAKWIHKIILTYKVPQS

Binder | EC50 [1] [nM] | EC50 [2] [nM]
B1 | 0.163 | 0.057
B2 | 0.208 | 0.063
B3 | 0.069 | 0.056
B4 | 0.251 | 0.066
B5 | 0.045 | 0.049
B6 | 0.063 | 0.061
B7 | 0.13 | 0.049
B8 | 0.153 | 0.062
B9 | 0.057 | ~0.041
B10 | 0.281 | 0.071
B11 | 0.148 | 0.055
B12 | 0.056 | 0.059
B13 | 0.196 | 0.058
B14 | 0.248 | 0.052
